Test results as given in patent US12448430B2 (dated 2025).

T1: Wilms tumor protein 1 (WT1) peptide on HLA-A*02:01 (human)
T1 peptide: VLDFAPPGA


Key:
[1] = target: T1, Wilms tumor protein 1 (WT1) peptide on …; assay: killing
[2] = target: T1, Wilms tumor protein 1 (WT1) peptide on …; assay: multimer staining

binding result [2] | Binder | binding result [1]
 | WT137-45 TCR15.1 (TCR, V domains shown) Valpha: GQNIDQPTEMTATEGAIVQINCTYQTSGFNGLFWYQQHAGEAPTFLSYNVLDGLEEKGRFSSFLSRSKGYSYLLLKELQMKDSASYLCAVRGINDYKLSFGAGTTVTVRA Vbeta: DGGITQSPKYLFRKEGQNVTLSCEQNLNHDAMYWYRQDPGQGLRLIYYSQIVNDFQKGDIAEGYSVSREKKESFPLTVTSAQKNPTAFYLCASSRDREQESPLHFGNGTRLTVT | recognises
recognises | WT137-45 TCR10.1 (TCR, V domains shown) Valpha: KQEVTQIPAALSVPEGENLVLNCSFTDSAIYNLQWFRQDPGKGLTSLLLIQSSQREQTSGRLNASLDKSSGRSTLYIAASQPGDSATYLCAVKETSGSRLTFGEGTQLTVNP Vbeta: GAGVSQSPRYKVTKRGQDVALRCDPISGHVSLYWYRQALGQGPEFLTYFNYEAQQDKSGLPNDRFSAERPEGSISTLTIQRTEQRDSAMYRCASSLTGSYEQYFGPGTRLTVT | 
